{"source": "paper PMC5435084", "target": "Robo1-CC3 (UniProt Q9Y6N7)", "sequence (Q9Y6N7 26-1651)": "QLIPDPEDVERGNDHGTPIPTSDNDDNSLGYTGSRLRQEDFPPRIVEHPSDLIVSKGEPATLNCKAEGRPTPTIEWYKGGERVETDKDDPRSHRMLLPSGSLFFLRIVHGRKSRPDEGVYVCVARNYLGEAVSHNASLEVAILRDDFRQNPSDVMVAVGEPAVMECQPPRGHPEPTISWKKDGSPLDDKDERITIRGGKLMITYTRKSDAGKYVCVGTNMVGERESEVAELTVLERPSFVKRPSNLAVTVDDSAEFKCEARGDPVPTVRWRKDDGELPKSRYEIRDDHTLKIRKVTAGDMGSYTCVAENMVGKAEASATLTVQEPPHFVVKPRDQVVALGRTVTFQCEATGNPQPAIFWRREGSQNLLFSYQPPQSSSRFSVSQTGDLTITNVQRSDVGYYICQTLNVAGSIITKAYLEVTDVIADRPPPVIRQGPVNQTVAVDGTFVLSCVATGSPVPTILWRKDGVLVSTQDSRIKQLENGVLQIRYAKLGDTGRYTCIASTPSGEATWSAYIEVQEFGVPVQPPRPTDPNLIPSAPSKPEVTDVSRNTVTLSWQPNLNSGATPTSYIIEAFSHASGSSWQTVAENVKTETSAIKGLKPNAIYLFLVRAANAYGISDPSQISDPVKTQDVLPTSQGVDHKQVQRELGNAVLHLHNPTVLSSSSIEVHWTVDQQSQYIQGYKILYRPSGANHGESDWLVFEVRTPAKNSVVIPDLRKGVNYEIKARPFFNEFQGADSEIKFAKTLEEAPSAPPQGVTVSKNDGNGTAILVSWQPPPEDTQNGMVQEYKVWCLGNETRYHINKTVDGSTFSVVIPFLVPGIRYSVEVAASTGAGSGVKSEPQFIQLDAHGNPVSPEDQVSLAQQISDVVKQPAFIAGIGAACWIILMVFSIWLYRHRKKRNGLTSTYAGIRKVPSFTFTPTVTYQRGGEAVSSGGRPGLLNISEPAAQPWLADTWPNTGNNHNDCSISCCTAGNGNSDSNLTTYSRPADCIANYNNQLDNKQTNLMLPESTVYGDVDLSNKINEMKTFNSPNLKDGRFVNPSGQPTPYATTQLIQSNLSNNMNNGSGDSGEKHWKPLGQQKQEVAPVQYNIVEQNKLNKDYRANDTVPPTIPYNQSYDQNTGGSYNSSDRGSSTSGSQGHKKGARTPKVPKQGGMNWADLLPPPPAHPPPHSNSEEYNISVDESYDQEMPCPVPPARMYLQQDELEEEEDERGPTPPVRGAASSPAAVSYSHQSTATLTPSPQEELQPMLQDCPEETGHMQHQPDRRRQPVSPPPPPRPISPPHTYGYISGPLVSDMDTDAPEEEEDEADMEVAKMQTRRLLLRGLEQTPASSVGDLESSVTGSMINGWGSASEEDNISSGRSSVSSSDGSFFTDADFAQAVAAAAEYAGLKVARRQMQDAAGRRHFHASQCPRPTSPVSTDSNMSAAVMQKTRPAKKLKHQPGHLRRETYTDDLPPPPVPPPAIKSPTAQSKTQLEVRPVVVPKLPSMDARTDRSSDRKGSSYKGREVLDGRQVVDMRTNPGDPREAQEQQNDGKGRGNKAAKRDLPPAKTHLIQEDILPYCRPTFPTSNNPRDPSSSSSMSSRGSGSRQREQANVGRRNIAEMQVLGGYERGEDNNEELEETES", "assay": "SPR"}
{"substance": "SRGAP2A:F-BARC hetero-dimer (from UniProt O75044 1-799; P0DJJ0 1-355) (complex)", "values": [{"measurement": "Kd", "value": 5.6, "unit": "µM"}]}
